Experiments:
[1] = molecular target: T1, NCCRP1 (UniProt Q6ZVX7 1-275); test: co-IP, anti-FLAG, N-FLAG B3GNT2 cell lysate, mass spectrometry
T1 construct: also called NP_001001414.1
T1 sequence (looked up): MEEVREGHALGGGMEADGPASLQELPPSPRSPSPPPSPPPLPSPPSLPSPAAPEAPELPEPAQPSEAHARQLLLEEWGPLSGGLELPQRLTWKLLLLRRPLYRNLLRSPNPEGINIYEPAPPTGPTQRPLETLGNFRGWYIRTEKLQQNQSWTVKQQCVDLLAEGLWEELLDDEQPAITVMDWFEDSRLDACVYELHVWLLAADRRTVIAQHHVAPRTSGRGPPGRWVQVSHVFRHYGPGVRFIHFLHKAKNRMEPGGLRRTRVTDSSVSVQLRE
Protocol: (§1) Cells were plated in 10-cm cell culture dishes and grown to 60-80% confluency. For each condition, two biological replicates were harvested for co-IP. Cells were washed with PBS and 4 mL of lysis buffer (20 mM HEPES, 1% Triton X-100, 150 mM NaCl, 1 mM EDTA, and 10% glycerol) containing protease inhibitor cocktail was added. Cells were scraped and lysate was incubated at 4° C. under rotary agitation for 1 h. Lysate was centrifuged at 14,000×g for 10 min at 4° C. Supernatant was transferred to a new tube and an aliquot was taken as the input. […] For Western blots, 10 μg/mL Chicken Anti-FLAG (Aves labs ET-DY100) and IgY control (R&D Systems AB-101-C) antibodies were biotinylated (Thermo Fisher Scientific 90407) and added to the respective conditions. Lysates with antibodies were incubated at 4° C. under rotary agitation overnight. For each mL of lysate, 50 μL of Pierce Protein A/G Magnetic Beads (Mass spectrometry; Thermo Fisher Scientific 88803) or Pierce Streptavidin Magnetic Beads (Western blot; Thermo Fisher Scientific 88817) was washed twice with lysis buffer. Lysates with antibodies were added to the beads and incubated at 4° C. under rotary agitation for 4 h. Beads were washed with lysis buffer 3 times and resuspended in lysis buffer for storage.
(§2) Magnetic beads were resuspended in 100 mM Tris pH 7.8, reduced, alkylated and digested with trypsin at 37° ° C. overnight. This solution was subjected to solid phase extraction to concentrate the peptides and remove unwanted reagents followed by injection onto a Shimadzu HPLC with fraction collector. Eight fractions were collected and after concentration were injected on a Waters NanoAcquity HPLC equipped with a self-packed Aeris 3 μm C18 analytical column 0.075 mm by 20 cm, (Phenomenex). Peptides were eluted using standard reverse-phase gradients. The effluent from the column was analyzed using a Thermo Orbitrap Elite mass spectrometer (nanospray configuration) operated in a data dependent manner for 54 minutes. The resulting fragmentation spectra were correlated against the known database using Proteome Discover 1.4 (Thermo Fisher Scientific).

[2] = molecular target: T2, EIF4G1 (UniProt Q04637-3 1-1559, limits assumed); test: as above
T2 construct: also called NP_001278086.1
T2 sequence (Q04637 41-1599 limits assumed): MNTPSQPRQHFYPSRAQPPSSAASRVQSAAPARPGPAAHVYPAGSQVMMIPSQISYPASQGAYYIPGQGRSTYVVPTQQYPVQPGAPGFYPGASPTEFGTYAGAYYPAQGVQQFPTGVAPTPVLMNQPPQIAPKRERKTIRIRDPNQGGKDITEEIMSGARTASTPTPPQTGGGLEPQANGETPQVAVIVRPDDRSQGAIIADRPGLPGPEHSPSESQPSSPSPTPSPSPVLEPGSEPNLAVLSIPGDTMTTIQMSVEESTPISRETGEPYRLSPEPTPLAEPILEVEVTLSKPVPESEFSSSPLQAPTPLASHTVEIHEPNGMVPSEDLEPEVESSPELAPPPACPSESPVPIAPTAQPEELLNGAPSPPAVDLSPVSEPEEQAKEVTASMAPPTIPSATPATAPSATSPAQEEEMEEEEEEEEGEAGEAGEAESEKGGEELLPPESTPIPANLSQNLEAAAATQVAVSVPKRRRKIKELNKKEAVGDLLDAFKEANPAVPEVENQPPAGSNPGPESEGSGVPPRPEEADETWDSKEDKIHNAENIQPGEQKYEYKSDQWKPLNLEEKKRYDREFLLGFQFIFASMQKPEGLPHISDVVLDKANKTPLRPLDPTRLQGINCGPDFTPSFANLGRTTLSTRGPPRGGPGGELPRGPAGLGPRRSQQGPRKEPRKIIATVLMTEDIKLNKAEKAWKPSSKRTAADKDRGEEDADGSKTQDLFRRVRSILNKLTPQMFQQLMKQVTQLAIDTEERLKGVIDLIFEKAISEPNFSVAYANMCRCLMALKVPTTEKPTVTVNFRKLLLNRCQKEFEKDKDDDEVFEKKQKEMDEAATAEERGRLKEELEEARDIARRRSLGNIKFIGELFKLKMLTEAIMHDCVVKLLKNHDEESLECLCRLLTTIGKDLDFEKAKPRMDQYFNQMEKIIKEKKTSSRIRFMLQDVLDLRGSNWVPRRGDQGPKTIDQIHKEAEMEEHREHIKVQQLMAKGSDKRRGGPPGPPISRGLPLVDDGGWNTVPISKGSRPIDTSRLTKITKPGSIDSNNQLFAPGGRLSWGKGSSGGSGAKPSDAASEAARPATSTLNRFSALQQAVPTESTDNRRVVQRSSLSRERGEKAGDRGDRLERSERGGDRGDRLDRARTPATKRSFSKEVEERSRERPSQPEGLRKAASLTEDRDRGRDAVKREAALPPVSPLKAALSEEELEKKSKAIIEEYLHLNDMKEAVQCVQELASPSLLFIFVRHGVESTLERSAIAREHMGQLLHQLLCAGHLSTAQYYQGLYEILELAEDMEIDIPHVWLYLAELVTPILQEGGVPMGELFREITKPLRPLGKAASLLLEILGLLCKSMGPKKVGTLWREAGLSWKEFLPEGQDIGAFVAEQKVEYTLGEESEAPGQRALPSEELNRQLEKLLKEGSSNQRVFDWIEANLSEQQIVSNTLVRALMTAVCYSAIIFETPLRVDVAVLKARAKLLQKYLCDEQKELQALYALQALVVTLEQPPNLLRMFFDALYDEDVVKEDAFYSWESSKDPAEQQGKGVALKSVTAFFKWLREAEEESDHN
Protocol: as §1, §2

[3] = molecular target: T3, HNRNPU (UniProt Q00839 2-825); test: as above
T3 construct: also called NP_114032.2
T3 sequence (Q00839 2-825 limits assumed): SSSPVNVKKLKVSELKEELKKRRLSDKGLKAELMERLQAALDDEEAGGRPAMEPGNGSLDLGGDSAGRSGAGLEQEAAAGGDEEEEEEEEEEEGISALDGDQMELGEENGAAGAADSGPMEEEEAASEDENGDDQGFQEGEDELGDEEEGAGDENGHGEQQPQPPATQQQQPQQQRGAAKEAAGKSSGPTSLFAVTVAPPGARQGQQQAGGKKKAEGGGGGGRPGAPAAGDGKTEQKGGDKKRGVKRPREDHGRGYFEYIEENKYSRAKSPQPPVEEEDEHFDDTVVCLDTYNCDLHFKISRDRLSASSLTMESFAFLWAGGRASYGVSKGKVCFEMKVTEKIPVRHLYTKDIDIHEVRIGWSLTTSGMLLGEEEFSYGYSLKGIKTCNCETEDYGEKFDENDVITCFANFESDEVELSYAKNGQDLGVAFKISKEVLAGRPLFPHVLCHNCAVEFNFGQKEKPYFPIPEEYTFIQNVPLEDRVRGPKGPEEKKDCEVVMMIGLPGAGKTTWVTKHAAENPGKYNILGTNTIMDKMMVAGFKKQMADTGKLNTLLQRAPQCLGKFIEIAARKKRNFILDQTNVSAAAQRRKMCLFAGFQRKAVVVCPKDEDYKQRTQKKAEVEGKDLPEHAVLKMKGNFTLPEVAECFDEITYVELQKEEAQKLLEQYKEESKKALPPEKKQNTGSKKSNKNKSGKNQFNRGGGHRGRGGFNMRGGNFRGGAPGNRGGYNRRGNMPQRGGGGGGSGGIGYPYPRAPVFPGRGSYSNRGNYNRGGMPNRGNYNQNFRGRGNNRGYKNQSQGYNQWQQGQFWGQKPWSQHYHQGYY
Protocol: as §1, §2

[4] = molecular target: T4, DEFA3 (UniProt P59666 65-94, limits assumed); test: as above
T4 construct: also called NP_005208.1 (+1)
T4 sequence (P59666 65-94 limits assumed): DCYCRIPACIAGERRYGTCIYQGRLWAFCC
Protocol: as §1, §2

[5] = molecular target: RPS19 (UniProt P39019 2-145); test: as above
Protocol: as §1, §2

[6] = molecular target: RPS8 (UniProt P62241 2-208); test: as above
Protocol: as §1, §2

[7] = molecular target: T5, SRSF3 (UniProt P84103 1-164); test: as above
T5 construct: also called NP_003008.1
T5 sequence (looked up): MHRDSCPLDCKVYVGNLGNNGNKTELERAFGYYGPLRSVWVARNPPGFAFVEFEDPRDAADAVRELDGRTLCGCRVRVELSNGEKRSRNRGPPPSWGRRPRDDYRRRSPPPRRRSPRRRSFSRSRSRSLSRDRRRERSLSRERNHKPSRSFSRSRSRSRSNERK
Protocol: as §1, §2

[8] = molecular target: T6, SLC27A4 (human, UniProt Q6P1M0 1-643); test: co-IP with anti-FLAG, mass spectrometry; lysate of cells with N-FLAG B3GNT2
T6 construct: also called NP_005085.2
T6 sequence (Q6P1M0 whole entry): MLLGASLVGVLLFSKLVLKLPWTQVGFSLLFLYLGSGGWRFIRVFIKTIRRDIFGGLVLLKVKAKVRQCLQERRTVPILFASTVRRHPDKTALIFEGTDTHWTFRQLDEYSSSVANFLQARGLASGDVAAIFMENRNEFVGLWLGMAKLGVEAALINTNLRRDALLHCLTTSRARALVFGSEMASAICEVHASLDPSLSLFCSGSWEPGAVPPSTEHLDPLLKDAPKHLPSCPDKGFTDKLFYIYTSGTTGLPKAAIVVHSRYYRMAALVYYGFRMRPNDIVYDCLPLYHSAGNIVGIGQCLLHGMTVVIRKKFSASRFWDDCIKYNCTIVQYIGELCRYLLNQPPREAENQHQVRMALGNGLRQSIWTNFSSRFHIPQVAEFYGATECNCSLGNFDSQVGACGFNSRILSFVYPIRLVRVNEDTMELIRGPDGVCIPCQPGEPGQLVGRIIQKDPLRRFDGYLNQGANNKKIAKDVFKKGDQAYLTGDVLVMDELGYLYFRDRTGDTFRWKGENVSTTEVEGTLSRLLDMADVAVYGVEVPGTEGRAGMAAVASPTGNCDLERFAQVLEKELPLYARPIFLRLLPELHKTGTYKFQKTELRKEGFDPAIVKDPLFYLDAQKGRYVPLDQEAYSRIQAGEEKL

[9] = molecular target: T7, RARS (human, UniProt P54136 1-660); test: as above
T7 construct: also called NP_002878.2
T7 sequence (looked up): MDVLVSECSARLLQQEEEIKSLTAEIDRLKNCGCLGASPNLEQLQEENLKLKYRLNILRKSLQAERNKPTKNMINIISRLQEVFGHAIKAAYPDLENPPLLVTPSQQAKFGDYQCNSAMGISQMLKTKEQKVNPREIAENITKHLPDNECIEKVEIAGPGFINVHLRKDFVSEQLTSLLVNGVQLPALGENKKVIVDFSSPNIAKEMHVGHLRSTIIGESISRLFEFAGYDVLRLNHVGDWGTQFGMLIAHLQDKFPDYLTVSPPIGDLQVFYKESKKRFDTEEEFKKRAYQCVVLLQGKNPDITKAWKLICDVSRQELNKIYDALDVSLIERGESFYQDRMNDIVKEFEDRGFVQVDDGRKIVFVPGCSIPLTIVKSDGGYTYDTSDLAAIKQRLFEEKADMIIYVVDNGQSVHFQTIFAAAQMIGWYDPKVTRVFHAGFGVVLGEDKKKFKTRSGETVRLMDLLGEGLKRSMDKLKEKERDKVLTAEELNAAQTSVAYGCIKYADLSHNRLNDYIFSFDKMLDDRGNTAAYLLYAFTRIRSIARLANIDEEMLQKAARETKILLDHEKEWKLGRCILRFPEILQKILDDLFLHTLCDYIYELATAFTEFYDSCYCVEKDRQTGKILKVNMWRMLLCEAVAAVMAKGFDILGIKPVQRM

B1: N-terminal FLAG tagged B3GNT2 (enzyme, human, UniProt Q9NY97 1-397, looked up)
chain: MSVGRRRIKLLGILMMANVFIYFIMEVSKSSSQEKNGKGEVIIPKEKFWKISTPPEAYWNREQEKLNRQYNPILSMLTNQTGEAGRLSNISHLNYCEPDLRVTSVVTGFNNLPDRFKDFLLYLRCRNYSLLIDQPDKCAKKPFLLLAIKSLTPHFARRQAIRESWGQESNAGNQTVVRVFLLGQTPPEDNHPDLSDMLKFESEKHQDILMWNYRDTFFNLSLKEVLFLRWVSTSCPDTEFVFKGDDDVFVNTHHILNYLNSLSKTKAKDLFIGDVIHNAGPHRDKKLKYYIPEVVYSGLYPPYAGGGGFLYSGHLALRLYHITDQVHLYPIDDVYTGMCLQKLGLVPEKHKGFRTFDIEEKNKNNICSYVDLMLVHSRKPQEMIDIWSQLQSAHLKC
notes: Bait of the co-IP; pulled down with mouse anti-FLAG from cell lysate; also called N-FLAG B3GNT2; N-term FLAG; not shown: FLAG tag at the N-terminus
For B1, the “co-IP mass spectrometry count” value [1] was 4, the “co-IP mass spectrometry count” value [2] was 2 and the “co-IP mass spectrometry count” value [3] was 0. For the same binder, the “co-IP mass spectrometry count” value [4] was 5, the “co-IP mass spectrometry count” value [5] was 5 and the “co-IP mass spectrometry count” value [6] was 6. For the same binder, the “co-IP mass spectrometry count” value [7] was 6.

B2: N-terminal FLAG tagged B3GNT2 (enzyme, human, UniProt Q9NY97 1-397, looked up)
chain: MSVGRRRIKLLGILMMANVFIYFIMEVSKSSSQEKNGKGEVIIPKEKFWKISTPPEAYWNREQEKLNRQYNPILSMLTNQTGEAGRLSNISHLNYCEPDLRVTSVVTGFNNLPDRFKDFLLYLRCRNYSLLIDQPDKCAKKPFLLLAIKSLTPHFARRQAIRESWGQESNAGNQTVVRVFLLGQTPPEDNHPDLSDMLKFESEKHQDILMWNYRDTFFNLSLKEVLFLRWVSTSCPDTEFVFKGDDDVFVNTHHILNYLNSLSKTKAKDLFIGDVIHNAGPHRDKKLKYYIPEVVYSGLYPPYAGGGGFLYSGHLALRLYHITDQVHLYPIDDVYTGMCLQKLGLVPEKHKGFRTFDIEEKNKNNICSYVDLMLVHSRKPQEMIDIWSQLQSAHLKC
notes: Bait of the co-IP; pulled down with mouse anti-FLAG (Millipore Sigma F3165) from cell lysate; also called N-FLAG B3GNT2; N-term FLAG; not shown: N-terminal FLAG tag
With B2 the “co-IP mass spectrometry count” value [8] was 0 and the “co-IP mass spectrometry count” value [9] was 0.
